Common to all, as to experiment: fluorescence anisotropy
Background: Polarisation of emitted light reports the rotation of a fluorescent probe.

Assay [1] has as its target T1, Src-optimal substrate peptide Rs1 (synthetic construct).
T1 chain: fluorescein-AEEEIYGEFAKKK

Assay [2] concerns the target T2, Src-optimal substrate peptide Rs1 (synthetic construct).
T2 chain: fluorescein-AEEEIYGEFAKKK

Assay [3] addresses T3, Src-optimal substrate peptide Rs1 (synthetic construct).
T3 chain: fluorescein-AEEEIYGEFAKKK

The values below come from publication PMC4300553 (2015).

Ends that are not written are not given here. fluorescein = fluorescein label on the N-terminus of the peptide

B1: Src kinase domain 251-533 (protein)
chain: QTQGLAKDAWEIPRESLRLEVKLGQGCFGEVWMGTWNGTTRVAIKTLKPGTMSPEAFLQEAQVMKKLRHEKLVQLYAVVSEEPIYIVTEYMSKGSLLDFLKGEMGKYLRLPQLVDMAAQIASGMAYVERMNYVHRDLRAANILVGENLVCKVADFGLARLIEDNEYTARQGAKFPIKWTAPEAALYGRFTIKSDVWSFGILLTELTTKGRVPYPGMVNREVLDQVERGYRMPCPPECPESLHDLMCQCWRKDPEERPTFEYLQAFLEDYFTSTEPQYQPGENL
One may read the Kd as the free concentration of one partner at which half of the binding sites on the other are occupied at equilibrium, for simple one-to-one binding. For B1, the dissociation constant (Kd) in assay [1] is 37 µM; in assay [2], 16 µM; in assay [3], 17 µM.
